Data published in patent US20150232562A1 (Ablynx, published 2015).

Molecular target: T1, recombinant human ErbB2/Fc chimera (human, UniProt P04626 23-652)
T1 construct: bought from R&D Systems; also called rhErbB2-Fc; rhErb2-Fc; Fc part of the bought chimera not given; not described
Test: ELISA, coated ErbB2/Fc

| Binder | binding result |
| --- | --- |
| 13E81/1-124 (VHH, C-term myc-His6 tag) VHH: EVQLVESGGGLVQAGGSLRLSCAASGGTFSVYHMAWFRQAPGKEREFVAAIRSSGGLFYALSVSGRFTISRDNAKDTMYLQMNVLKPEDTAVYYCAASPVYYIDYSSQYKYGYWGQGTQVTVSS | binds |
| 22B41/1-124 (VHH, C-term myc-His6 tag) VHH: EVQLVESGGGLVQPGGSLRLSCTVFGRTFSGDVIGWFRQAPGKEREFVAAISTSGGGTDSADSVKGRFTISKENAKNTVYLQMTILKPEDTAVYYCASSPYGPLYRSTHYYDYWGQGTQVTVSS | binds |
| 11A31/1-120 (VHH, C-term myc-His6 tag) VHH: EVQLVESGGGLVQAGGSLRLSCAASGGTFSSGVMAWFRQSPGEEREFLALITRNGETKKTADSVKGRFTISRDNAKNGVSLQMDSLKAEDTAVYYCASDPTYGSGRWTYWGQGTQVTVSS | binds |
| 13F121/1-119 (VHH, C-term myc-His6 tag) VHH: EVQLVESGGGLVQAGGSLRLSCAASGRSFNDYTMGWFRQTPGKEREFVARVWWNGGSAYYADSVKGRFTISIDNAKNTVYLQMNNLTPEDTAVYYCAALYRGRSVYDDWGQGTQVTVSS | binds |
| 22B610/1-120 (VHH, C-term myc-His6 tag) VHH: EVQLVESGGGLVQPGGSLRLSCAASGSIFSINAMGWYRPAPGKQRELVARITSTGSTNYADSVKGRFTISRDNAKNTVYLQMNSLKPEDTAVYYCNADVSPSYGSRWYGWGQGTQVTVSS | binds |
| 21A92/1-127 (VHH, C-term myc-His6 tag) VHH: EVQLVESGGGQVQAGGSLRLSCTESGRAFNTRAMGWFRQAPEKEREFVAGITMSGFNTRYADSVKGRFTISRDNAKGTVYLQMSSLKPEDTAVYYCAADSITDRRSVAVAHTSYYYWGQGTQVTVSS | binds |
| 11B31/1-124 (VHH, C-term myc-His6 tag) VHH: EVQLVESGGGLVQAGGSLRLSCAASGGAFGVYHMGWFRQAPGKEREFVAAIRSGGTTLYEDSVKGRFTISRDNAKNTVYLRMNSLKPEDTAVYYCATQIYYRTNYYSQNAYDYWGQGTQVTVSS | binds |
| 14H51/1-124 (VHH, C-term myc-His6 tag) VHH: EVQLVESGGGLVQAGGSLRLSCAASGGTFGVYTMAWFRQAPGKEREFVAAIRSGATTLYEDSVKGRFTISRDDAKNTVYLRMNSLKPEDTAVYYCAAQIYYRTNYYSQNEYDYWGQGTQVTVSS | binds |
| 21A21/1-124 (VHH, C-term myc-His6 tag) VHH: EVQLVESGGGLVQAGGSLRLSCAASGGTFGVYHMGWFRQAPGTEREFVAVIRSGGTTLYEDSVKGRFTISRDNAKNTVYLRMNSLKPEDTAVYYCAAQIYYRTNYSSQSNYDYWGQGTQVTVSS | binds |
| 13G81/1-124 (VHH, C-term myc-His6 tag) VHH: EVQLVESGGGLVQAGGSLRLSCAASGGTFGVYHMGWFRQAPGKEREFVAVIRSGGTTLYADSVKGRFTISRDDAKNTVYLQMNSLKPEDTAVYLCAAQIYYRTNYYSQNNYDYWGQGTQVTVSS | binds |
| 21A53/1-124 (VHH, C-term myc-His6 tag) VHH: EVQLVESGGGLVQAGGSLELSCAASGGAFGVYHMGWFRQAPGKEREFVAAIRSGGTTLYEDSVKGRVTISRDDAKNTVYLRMNSLKPEDTAVYYCAAQIYYRTNYYSQNVYDYWGQGTQVTVSS | binds |
| 13G72/1-118 (VHH, C-term myc-His6 tag) VHH: EVQLVESGGGLVQAGGSLRLSCAASGRAFSSYAMGWFRQAPGKERDFVAAITSSGSTNYADSVKGRFTISRDNAKNTVYLQMNSLKPEDTAVYYCAAKYYSYYAYDYWGQGTQVTVSS | binds |
| 11A13/1-125 (VHH, C-term myc-His6 tag) VHH: EVQLVESGGGLVQAGDSLRLSCVASGGTFGSYAMGWFRQAPGKEREFVATIDWSGDTAFYADSVKGRFTISRDIANDVVYLQMNSLEPEDTAVYYCARNRQSGVASENLRLYTYWGQGTQVTVSS | binds |
| 12C61/1-126 (VHH, C-term myc-His6 tag) VHH: EVQLVESGGGLVQAGGSLRLSCAASGRTFSSNAMAWFRQAPGNERELVSAIGWSGASTYYIDSVEGRFTISRDNAKNTVYLQMNSLKPEDTAVYYCAASRYSGGVATARRSEYHYWGQGTQVTVSS | binds |
| 21A61/1-125 (VHH, C-term myc-His6 tag) VHH: EVQLVESGGGLVQAGDSLRLSCVASGDSFNTYTMGWFRQAPGKEREFVAAIRWSGGTTFYGDSVKGRFTISRDYAKNTWYLQMNTLKPEDTAAYYCAAVATYSRNVGSVRNYDYWGQGTQVTVSS | binds |
| 13G93/1-123 (VHH, C-term myc-His6 tag) VHH: EVQLVESGGGLAQAGDSLRLSCVDSGSSFSAYAMGWFRQAPGKEREFVAAVSWDGRNTYYADSVKGRFTISRDNAKNTLYLQTTSLRPEDTGVYYCAEDKQSGVSVNPKYAYWGQGTQVTVSS | binds |
| 12D71/1-125 (VHH, C-term myc-His6 tag) VHH: EVQLVESGGGLVQAGGSLGLSCAASGRTVSTMGWFRQAPGKEREFVTAITWSGDSTNFADSVKGRFTISRDSAKDTVYLQMNNLKPEDTAVYYCAATTYYSGSYISTLSTSYNYWGQGTQVTVSS | binds |
| 21A111/1-124 (VHH, C-term myc-His6 tag) VHH: EVQLVESGGGLVQAGGSLKLSCAVSGRTIVPYTMAWFRQAPGKEREFVAVTRSGGTTFYADSAKGRFTIARDDAKNTVYLQMNSLKPEDTAVYYCALATAYRTNYSSRDKYDYWGQGTQVTVSS | binds |
| 13F41/1-111 (VHH, C-term myc-His6 tag) VHH: EVQLVESGGGLVQAGGSLRLSCVASGRTLSTTGVGWFRQAPGKERESVATIFVGGTTYYSDSVKGRFTISRDNAKNAVNLQMSNLKPEDTALYYCTIGSYRGQGTQVTVSS | binds |

Results, then the binder that gave them:

| binding result | Binder |
| --- | --- |
| binds | 22B1212/1-122 (VHH, C-term myc-His6 tag) VHH: EVQLVESGGGLVQPGGSLRLSCAASGFTFSSYAMSWVRQAPGKGLEWVSAINSGGGSTSYADSVKGRFTISRDNAKNTLYLQMNSLKPEDTAVYYCAKYLSFYSDYEVYDYWGQGTQVTVSS |
| binds | 13E51/1-128 (VHH, C-term myc-His6 tag) VHH: EVQLVESGGGLVQAGGSLRLSCAASRHTFSGYAMGWFRQAPGKEREFVAAIRWSGGITYYADSVKGRFTISSDNAKNTVYLQMNSLKPEDTALYYCARSVTYYSGSHAYTQEGGYARWGQGTQVTVSS |
| binds | 13G121/1-127 (VHH, C-term myc-His6 tag) VHH: EVQLVESGGGLVRAGTSLRLSCADSARTFSSAAMGWFRQAPGKEREFVSAISPIGSSKYYADSVKGRFTISRDNAKNTVYLQMDSLKPEDTAVYYCAASSYGSTYYSQGRAYYYDYWGQGTQVTVSS |
| binds | 12D121/1-126 (VHH, C-term myc-His6 tag) VHH: EVQLVESGGGLVQTGGSLRLSCAASGRAFSTYGMGWFRQAPGKAREFVAAISRSGTGTYYAGSMKGRFTISRDDAKNTVYLQMNSLKPEDTAVYYCAARQPYASGSHYSSTQYTYWGQGTQVTVSS |
| binds | 12D61/1-116 (VHH, C-term myc-His6 tag) VHH: EVQLVESGGGLVQPGGSLRLSCAASRSIFSPNVVGWYRQAPGKQRELVAAVTSGGITNYADSVKGRFTISRDNAKNTLYLQMNSLKAEDTAVYYCNARERGIYDSWGQGTQVTVSS |
| binds | 14H91/1-127 (VHH, C-term myc-His6 tag) VHH: EVQLVESGGGLVQAGGSLRLSCAASGRTFSRDVMGWFRQAPGKEREFVAAKTWSGASTYYADSVRGRFTISRDNAKNAVYLQMNSLKPEDTAVYYCAARDSSTLDSTYYVGGSYNYWGRGTQVTVSS |
| binds | 11A91/1-124 (VHH, C-term myc-His6 tag) VHH: EAQLVESGGGLVQAGGSLRLSCTASGRTYSTTMGWFRQAPGKEREFVAAIRWSGGSAFYADSVKGRFTISRDNAKNTVYLQMTSLMPEDTAVYYCADTPVYYQRYYDQNAYDYWGQGTQVTVSS |
| binds | 13F42/1-111 (VHH, C-term myc-His6 tag) VHH: EVQLVESGGGLVQAGGSLRLSCVASGRTLSTTGVGWFRQAPGKGRESVATIFVGGTTYYSDSVKGRFTISRDNAKNAVNLQMSNLKPEDTALHYCTIGSYRGQGTQVTVSS |
| binds | 12C101/1-111 (VHH, C-term myc-His6 tag) VHH: EVQLVESGGGLVQAGGSLRLSCVASGRTLSTTGVGWFRQAPGKERESVATIFVGGTTYYSDSVKGRFTISRDNARNAVNPQMNNLKPEDTAVYYCTIGSYRGQGTQVTVSS |
| binds | 22C712/1-123 (VHH, C-term myc-His6 tag) VHH: EVQLVESGGGLVQAGGSLGLSCAASGRTFSNYAMGWFRQAPGKEREFVAGISWSGGHTFYADSVKGRFTISRDNTKNTVYLQMNSMRPEDTAVYYCAARLSSVAVASTRYDYWGQGTQVTVSS |
| binds | 11A121/1-126 (VHH, C-term myc-His6 tag) VHH: EVQLVESGGGLVQAGGSLRLSCVVSEGTFSSYSMGWFRQAPGKDREFVSAITWNGTRTYYRDSVKGRFTISRDNAKNTVQLQMNSLKPEDTAVYYCAVSQPLNYYTYYDARRYDYWGQGTQVTVSS |
| binds | 12C32/1-127 (VHH, C-term myc-His6 tag) VHH: EMQLVESGGGLVQAGGSLRLSCATSERTFSTYTMAWFRQAPGKEREFVVAIKSSDNSTSYRDSVKGRFTISRDNAKSTMYLQMNSLKPEDTAVYYCAARREYSTIYTARYPGEYVYWGQGTQVTVSS |
| binds | 14H21/1-125 (VHH, C-term myc-His6 tag) VHH: EVQLVESGGGLVQAGGSLRLSCVRSGGYFGSYHIGWFRQAPGNEREFVAAITWNGASTSYADSVKGRFTISRSIAENTVYLQMNKVKPEDTAVYYCAARMYGSDWLPRPEDFDSWGQGTQVTVSS |
| binds | 12C52/1-118 (VHH, C-term myc-His6 tag) VHH: EVQLVESGGGLVQAGGSLRLSCAVSGGTFESDTMAWFRQAPGKEREFVARVSWIRTTYYSDSVKGRFTISKDNAKNTVYLQMNSLKPEDTAVYYCAAQTLGRSLYDYWGQGTQVTVSS |
